According to patent US11229713B2, “Methods and compositions for 18F-radiolabeling of biologics” (BRISTOL-MYERS SQUIBB COMPANY, priority 2014, dated 2022):

What was measured:
[1] = Stability of reconstituted [18F]-FPPEGA in 1×PBS buffer; assay type: physicochemical; details: 100% 1×PBS buffer, 37° C.
Method: An aqueous [^18F]-Fluoride solution (2.0 ml, 33.3 GBq/900 mCi) was purchased from P.E.T. Net® Pharmaceuticals in West Point Pa. and directly transferred to a Sep-Pak light QMA [The Sep-Pak light QMA cartridge was pre-conditioned sequentially with 5 ml of 0.5 M potassium bicarbonate, 5 ml of deionized water, and 5 ml of MeCN before use.] Upon completion of this transfer, the aqueous [^18F] fluoride was released from the QMA Sep-Pak by the sequential addition of potassium carbonate (15 mg/ml; 0.1 ml) followed by a mixture of potassium carbonate (30 mg/ml, 0.1 ml), 4,7,13,16,21,24-hexaoxa-1,10-diazabicyclo[8.8.8]hexacosane (15 mg, 0.04 mmol) and 1.2 ml of MeCN. The solvent was evaporated under a gentle stream of nitrogen at 90° C. and vacuum. Azeotropic drying was repeated twice with 1 ml portions of acetonitrile to generate the anhydrous K.2.2.2/K[^18F]F complex. […] The entire contents of the crude reaction mixture was then transferred, loaded and purified using reverse phase HPLC and the following conditions: HPLC Column: Luna C18 250×10 Solvent A: 0.1% TFA in DI water; solvent B: 0.1% TFA in acetonitrile at a flow rate of 4.6 ml/minute using isocratic method 32% B while the UV was monitored at 280 nm. […]

[2] = biological target: T1, PD-L1 (Homo sapiens, UniProt Q9NZQ7); test: microPET imaging of mice bearing bilateral PD-L1(+) L2987 and PD-L1(−) HT-29 xenografts; assay type: in vivo; parameters: introducing 1×10^6 PD-L1(+) L2987 human lung carcinoma cells; endogenous in cells; host or cells: L2987 human lung carcinoma xenografts grown subcutaneously in mice; details: co-injected with 3 mg/kg unlabeled A02 Adnectin, 1 hour 50 minutes - 2 h post injection
T1 sequence (Q9NZQ7 19-290): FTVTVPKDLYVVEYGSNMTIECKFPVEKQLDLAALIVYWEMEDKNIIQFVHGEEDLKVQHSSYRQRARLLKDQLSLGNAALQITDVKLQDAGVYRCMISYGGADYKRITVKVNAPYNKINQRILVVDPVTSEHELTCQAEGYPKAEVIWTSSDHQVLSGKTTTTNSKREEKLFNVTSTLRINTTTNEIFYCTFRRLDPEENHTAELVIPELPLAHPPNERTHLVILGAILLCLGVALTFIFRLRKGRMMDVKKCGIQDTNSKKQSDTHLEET
Description: Mice bearing bilateral xenograft tumors were produced by introducing 1×10^6 PD-L1(+) L2987 human lung carcinoma cells and 1.5×10^6 PD-L1(−) HT-29 human colon carcinoma cells subcutaneously on opposite sides of the mouse. Once tumors reached approximately 300 mm^3 (approximately 2-3 weeks after cell implantation) animals were selected for imaging. For imaging, animals were placed under anesthesia with 2% isoflurane and tail vein catheters were installed. Mice were then placed into a custom animal holder with capacity for 4 animals, where they remained under anesthesia for the duration of the study. The animal holder was transferred to the microPET® F120™ scanner (Siemens Preclinical Solutions, Knoxville, Tenn.). […]
Following the transmission scan, radiotracer solutions were administered via the previously installed tail vein catheters and a 2 hour emission image was acquired. […] Exact injected doses were calculated by taking direct measurement of the formulated dose and subtracting the radioactivity remaining in the syringe and the tail vein catheter.
In the final images, regions of interest (ROIs) were drawn around the tumor boundary using ASIPro software (Siemens Preclinical Solutions). Time-activity curves were calculated for each ROI to yield a quantitative view of radiotracer within the tumor volume over the course of the 2 hour emission image. […]

[3] = biological target: T1, PD-L1; test: Ex vivo tissue biodistribution by gamma counter in xenograft-bearing mice; parameters: introducing 1×10^6 PD-L1(+) L2987 human lung carcinoma cells; endogenous in cells; host or cells: L2987 human lung carcinoma xenografts grown subcutaneously in mice
Method: For some studies, animals were sacrificed via cervical dislocation immediately following imaging. Necropsy was then performed on the animals, and individual tissues were collected (blood, heart, lung, liver, spleen, kidney, muscle, stomach, bone, L2987 tumor, and HT-29 tumor) into pre-weighed tubes. All tissues were then weighed again to determine the weight of each tissue. The radioactivity in each tissue was then directly measured ex vivo using a Perkin-Elmer Wizard3 gamma counter. For all tissues, measured values in counts per minute (CPM) were normalized to the injected radioactive dose for the individual animals and corrected for radioactive decay.

[4] = system: PD-L1; details: cynomolgus monkeys
Method: Cynomolgus male monkeys with a previously installed vascular access port (VAP) were anesthetized with 0.02 mg/kg atropine, 5 mg/kg Telazol and 0.01 mg/kg buprenorphine I.M. (all drawn into a single syringe). An i.v. catheter is then placed in the cephalic vessel for fluid administration during the imaging procedure to maintain hydration. […] Anesthesia was maintained with isoflurane and oxygen and I.V. fluids (LRS) were administered at a rate of 6 ml/kg/hr during the imaging procedure. As the axial field of view of the microPET® F220™ instrument is only 7.6 cm, images over 5 distinct bed positions were acquired to create a composite image of the animals from just above the heart through approximately the pelvis.
For each field of view, a 10 minute transmission image was first acquired using a ^57Co point source for the purpose of attenuation correction of the final PET images. […] Once images were acquired at each position (1 through 5), the imaging bed was moved back to bed position 1 and the process was repeated. Using this procedure, a total of 5 distinct images were acquired for each bed position over the duration of the imaging study.
Individual images were reconstructed using a filtered back projection (FBP) algorithm with attenuation correction using the collected transmission images and corrected for radioisotope decay.

[5] = biological target: T1, PD-L1; test: In vitro differentiation of PD-L1-positive from PD-L1-negative cells (cell-associated radioactivity, gamma counter); assay type: binding; parameters: PD-L1-positive L2987 human lung carcinoma cells or PD-L1-negative HT-29 human colorectal adenocarcinoma cells; endogenous in cells; host or cells: L2987 human lung carcinoma cells (HT-29 as PD-L1-negative control); details: 1 hour on ice
Method: Portions of this solution were supplemented with either cold (unlabeled) […] or cold (unlabeled) […] (control) to a final concentration of 450 nM. […] After the incubation period, cell samples were centrifuged at 200×g and the supernatant was discarded. Cell pellets were resuspended in 1 mL PBS+0.5% BSA and the wash procedure repeated for a total of 3 washes. Following the final wash, cells were again centrifuged at 200×g and the supernatant was discarded. The radioactivity of the remaining cell pellets was then measured by gamma counter.

[N-]=[N+]=NCCOCCOCCOCCOc1cccnc1[18F] [[^18F]-3-(2-(2-(2-(2-azidoethoxy)ethoxy)ethoxy)ethoxy)-2-fluoropyridine]
stable in this media [1]: over 1 hour

B1: ^18F-radiolabeled A02: ^18F-radiolabeled PD-L1 Adnectin A02 (SEQ ID NO: 2) produced as described in Example 9 (conjugate)
chain: EVVAATPTSLLISWSYDGPIDRYYRITYGETGGNSPVQEFTVPPDQKTATISGLKPGVDYTITVYAVRLEEAHYNREFPISINYRTPC
modifications: PEG4-DBCO linker, 18F-FPPEGA label; Synthetic 18F-radiolabeled PD-L1 Adnectin, A02
radiotracer uptake in PD-L1(+) L2987 xenografts relative to PD-L1(−) HT-29 xenografts, blocked [2]: 1.04 × | tissue with higher uptake than the PD-L1(+) tumor ([3]; ex vivo gamma counter): kidney | uptake in PD-L1(+) L2987 xenografts compared to PD-L1(−) HT-29 xenografts, ex vivo ([3]; necropsy immediately after imaging, gamma counter): clear differential uptake

B2: ^18F-radiolabeled E01-4PEG-DBCO: E01 anti-PD-L1 Adnectin (SEQ ID NO: 1) linked via maleimide-PEG4-DBCO to [18F]-FPPEGA by click reaction (conjugate)
chain: GVSDVPRDLEVVAATPTSLLISWRAQLSPSFYYRITYGETGGNSPVQEFTVPNDVMTATISGLKPGVDYTITVYAVTTHGVYFYSPISINYRTPC
modifications: maleimide-PEG4-DBCO, 18F-FPPEGA label; Synthetic FBS protein, E01 Adnectin containing the C-terminal amino acids PC
notable radiotracer accumulation (tissues) ([4]; PET): mainly in the kidneys, spleen, and bladder | background levels / background accumulation in PET images ([4]; approx. 1.5 mCi (approx. 0.015 mg/kg) via VAP): very low | cell associated radioactivity in PD-L1-positive L2987 cells relative to PD-L1-negative HT-29 cells ([5]; 300 nCi/200 μL tracer): 44.6 ×

B3: E01 Adnectin: FBS protein, anti-PD-L1 Adnectin, SEQ ID NO: 1, cold (unlabeled) (protein)
chain: GVSDVPRDLEVVAATPTSLLISWRAQLSPSFYYRITYGETGGNSPVQEFTVPNDVMTATISGLKPGVDYTITVYAVTTHGVYFYSPISINYRTPC
modifications: Synthetic FBS protein, E01 Adnectin containing the C-terminal amino acids PC
reduction in cell-associated ^18F-radiolabeled E01-4PEG-DBCO on co-incubation with cold adnectin ([5]; 450 nM cold (unlabeled) adnectin): 99.6%
